Laboratory results published in PMC5581195, “The activation of OsEIL1 on YUC8 transcription and auxin biosynthesis is required for ethylene-inhibited root elongation in rice early seedling development”.

Target: T1, GST-EIL1-N (OsEIL1 N-terminal region) (Oryza sativa (rice), UniProt Q10M41 1-350)
T1 sequence: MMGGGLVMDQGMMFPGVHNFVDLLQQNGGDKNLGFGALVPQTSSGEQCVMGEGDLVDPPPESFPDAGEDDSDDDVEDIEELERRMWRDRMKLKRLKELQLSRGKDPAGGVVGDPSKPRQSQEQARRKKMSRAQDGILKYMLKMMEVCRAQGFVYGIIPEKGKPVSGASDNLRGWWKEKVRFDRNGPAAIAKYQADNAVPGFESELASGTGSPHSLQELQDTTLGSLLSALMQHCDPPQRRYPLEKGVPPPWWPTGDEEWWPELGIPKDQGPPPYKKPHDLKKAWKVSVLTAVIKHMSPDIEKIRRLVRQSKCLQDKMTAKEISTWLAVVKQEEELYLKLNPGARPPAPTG
Assay: EMSA; specificity shown by excess unlabeled probe competition; LightShift Chemiluminescent EMSA kit, manufacturer's protocol; 20 min at room temperature; 5% native polyacrylamide gel; buffer, salt and pH not stated
Settings: protein: recombinant; tags: N-terminal GST (pGEX-6p-1); label: biotin 3' end; blunt

B1: YUC8/REIN7 promoter EBS probe (P1 fragment region) (dsDNA)
DNA 1: CCAAAATTTTTAATGTAAAATTTTAAGTACATTTTTTTCATGTACTAGCTACCTCC
DNA 2: GGAGGTAGCTAGTACATGAAAAAAATGTACTTAAAATTTTACATTAAAAATTTTGG
- binding result: binds
